m = 2'-O-methyl; r = 2'-OH (RNA)
B1: GA222: PCSK9 gRNA; protospacer TGGCAGGGGTGGTCAGCGGC (SEQ ID NO: 216) (nucleic acid)
guide: UGGCAGGGGUGGUCAGCGGCGUUUUAGAGCUAGAAAUAGCAAGUUAAAAUAAGGCUAGUCCGUUAUCAACUUGAAAAAGUGGCACCGAGUCGGUGCUUUU
modifications: sugars from the 5' end m3 r94 m3, linkages s3 o93 s3 (s phosphorothioate, o phosphodiester), T or U not given here
B2: GA223: PCSK9 gRNA; protospacer GCTGACCACCCCTGCCAGGT (SEQ ID NO: 217) (nucleic acid)
guide: GCUGACCACCCCUGCCAGGUGUUUUAGAGCUAGAAAUAGCAAGUUAAAAUAAGGCUAGUCCGUUAUCAACUUGAAAAAGUGGCACCGAGUCGGUGCUUUU
modifications: sugars from the 5' end m3 r94 m3, linkages s3 o93 s3 (s phosphorothioate, o phosphodiester), T or U not given here
B3: GA220: PCSK9 gRNA; protospacer GTGCTCAACTGCCAAGGGAA (SEQ ID NO: 214) (nucleic acid)
guide: GUGCUCAACUGCCAAGGGAAGUUUUAGAGCUAGAAAUAGCAAGUUAAAAUAAGGCUAGUCCGUUAUCAACUUGAAAAAGUGGCACCGAGUCGGUGCUUUU
modifications: sugars from the 5' end m3 r94 m3, linkages s3 o93 s3 (s phosphorothioate, o phosphodiester), T or U not given here
B4: GA160: PCSK9 gRNA; protospacer GCCTTGCGTTCCGAGGAGGA (SEQ ID NO: 154) (nucleic acid)
guide: GCCUUGCGUUCCGAGGAGGAGUUUUAGAGCUAGAAAUAGCAAGUUAAAAUAAGGCUAGUCCGUUAUCAACUUGAAAAAGUGGCACCGAGUCGGUGCUUUU
modifications: sugars from the 5' end m3 r94 m3, linkages s3 o93 s3 (s phosphorothioate, o phosphodiester), T or U not given here
B5: GA219: PCSK9 gRNA; protospacer GGCAGGGGTGGTCAGCGGCC (SEQ ID NO: 213) (nucleic acid)
guide: GGCAGGGGUGGUCAGCGGCCGUUUUAGAGCUAGAAAUAGCAAGUUAAAAUAAGGCUAGUCCGUUAUCAACUUGAAAAAGUGGCACCGAGUCGGUGCUUUU
modifications: sugars from the 5' end m3 r94 m3, linkages s3 o93 s3 (s phosphorothioate, o phosphodiester), T or U not given here
B6: GA221: PCSK9 gRNA; protospacer TCATGGCACCCACCTGGCAG (SEQ ID NO: 215) (nucleic acid)
guide: UCAUGGCACCCACCUGGCAGGUUUUAGAGCUAGAAAUAGCAAGUUAAAAUAAGGCUAGUCCGUUAUCAACUUGAAAAAGUGGCACCGAGUCGGUGCUUUU
modifications: sugars from the 5' end m3 r94 m3, linkages s3 o93 s3 (s phosphorothioate, o phosphodiester), T or U not given here

system: PCSK9 gene; assay: PCSK9 gRNA/SpCas9 editing in primary cynomolgus hepatocytes (Tables 2, 22); type: cell-based, cynomolgus monkey; details: 100 ng/RNA/mL; SpCas9 mRNA MS002 1:1 by weight

Row | Molecule | Cyno Primary Hepatocyte Editing % 100 [%]
1 | B1 | 0.88
2 | B2 | 3.46
3 | B3 | 3.13
4 | B4 | 1.38
5 | B5 | 0.35
6 | B6 | 2.82

same assay, conditions: 500 ng/RNA/mL; SpCas9 mRNA MS002 1:1 by weight

Row | Molecule | Cyno Primary Hepatocyte Editing % 500 [%]
7 | B1 | 3.32
8 | B2 | 21.4
9 | B3 | 12.39
10 | B4 | 6.60
11 | B5 | 11.89
12 | B6 | 20.27

same assay, conditions: 2500 ng/RNA/mL; SpCas9 mRNA MS002 1:1 by weight

Row | Molecule | Cyno Primary Hepatocyte Editing % 2500 [%]
13 | B1 | 16.7
14 | B2 | 57.58
15 | B3 | 45.17
16 | B4 | 23.15
17 | B5 | 48.67
18 | B6 | 57.4

system: PCSK9 gene; assay: PCSK9 gRNA/SpCas9 editing in primary human hepatocytes (Tables 2, 4); type: cell-based; details: 100 ng/RNA/mL; SpCas9 mRNA MS002 1:1 by weight
Summary of the method: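 Primary human hepatocytes co-transfected with PCSK9 gRNA plus SpCas9 mRNA (1:1 by weight) at 2500, 500 or 100 ng RNA/mL, or 2500–250 ng/mL for tracr-modified guides. Editing at the target site read by amplicon next-generation sequencing of extracted genomic DNA.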

Row | Molecule | Human Primary Hepatocyte Editing % 100 [%]
19 | B1 | 0.5
20 | B2 | 1.44
21 | B3 | 2.17
22 | B4 | 1.19
23 | B5 | 1.28
24 | B6 | 1.11

same assay, conditions: 500 ng/RNA/mL; SpCas9 mRNA MS002 1:1 by weight

Row | Molecule | Human Primary Hepatocyte Editing % 500 [%]
25 | B1 | 0.66
26 | B2 | 7.28
27 | B3 | 9.12
28 | B4 | 5.58
29 | B5 | 4.57
30 | B6 | 7.48

same assay, conditions: 2500 ng/RNA/mL; SpCas9 mRNA MS002 1:1 by weight

Row | Molecule | Human Primary Hepatocyte Editing % 2500 [%]
31 | B1 | 2.04
32 | B2 | 17.5
33 | B3 | 21.87
34 | B4 | 23.3
35 | B5 | 15.97
36 | B6 | 29.35

— patent US20250152746A1, “BASE EDITING OF ANGPTL3 AND METHODS OF USING SAME FOR TREATMENT OF DISEASE” (Verve Therapeutics, Inc., priority 2020, published 2025)
